According to patent US20110212094A1 (AbbVie / Abbott, published 2011):

T1: Recombinant Human SOST (human, UniProt Q9BQB4 24-213)
T1 construct: R&D reagent in Biacore; also called sclerostin; Human sclerostin (Abbott PR-1261069)
T1 sequence (looked up): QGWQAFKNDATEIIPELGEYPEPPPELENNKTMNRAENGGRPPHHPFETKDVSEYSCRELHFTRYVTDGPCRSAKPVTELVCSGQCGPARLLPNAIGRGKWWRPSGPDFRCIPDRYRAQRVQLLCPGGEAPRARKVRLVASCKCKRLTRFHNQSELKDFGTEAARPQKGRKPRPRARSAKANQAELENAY

B1: AB215 (antibody, human IgG1, kappa, V domains shown)
VH: QVQLVESGGGVVQPGRSLRLSCAASGFTFSSYAMHWVRQAPGNGLEWVAFMSYDGSNKYAKDSVKGRFTISRDNSKNTLYLQMNSLRAEDTAVYYCARDRGIAAGGNYYYYGMDVWGQGTTVTVSS
VL: EIVLTQSPATLSLSPGERATLSCRASQSVYSYLAWYQQKPGQAPRLLIYDASNRATGIPARFSGSGSGTDFTLTISSLEPEDFAVYYCQQRSNWPPFTFGPGTKVDIKR
notes: Parent anti-TNF antibody; also called AB215VH
B2: DVD1227 (bispecific antibody, human IgG1, kappa)
heavy: not shown
light: DVQMIQSPSSLSASLGDIVTMTCQASQGTSINLNWFQQKPGKAPKLLIYGSSNLEDGVPSRFSGSRYGTDFTLTISSLEDEDLATYFCLQHSYLPYTFGGGTKLEIKRTVAAPDIVMTQSHKFMSTTVGDRVSITCKASQAVSSAVAWYQQKPGQSPKLLIYWASTRHTGVPDRFTGSGSVTDFTLTIHNLQAEDLALYYCQQHYSTPFTFGSGTKLEIKRTVAAPSVFIFPPSDEQLKSGTASVVCLLNNFYPREAKVQWKVDNALQSGNSQESVTEQDSKDSTYSLSSTLTLSKADYEKHKVYACEVTHQGLSSPVTKSFNRGEC
notes: constant regions from vectors V1/V2; also called DVD1227H; DVD1227L
B3: DVD1230 (bispecific antibody, human IgG1, kappa)
heavy: not shown
light: EIVLTQSPATLSLSPGERATLSCRASQSVYSYLAWYQQKPGQAPRLLIYDASNRATGIPARFSGSGSGTDFTLTISSLEPEDFAVYYCQQRSNWPPFTFGPGTKVDIKRTVAAPDVQMIQSPSSLSASLGDIVTMTCQASQGTSINLNWFQQKPGKAPKLLIYGSSNLEDGVPSRFSGSRYGTDFTLTISSLEDEDLATYFCLQHSYLPYTFGGGTKLEIKRTVAAPSVFIFPPSDEQLKSGTASVVCLLNNFYPREAKVQWKVDNALQSGNSQESVTEQDSKDSTYSLSSTLTLSKADYEKHKVYACEVTHQGLSSPVTKSFNRGEC
notes: constant regions from vectors V1/V2; also called DVD1230H; DVD1230L
B4: AB214 (antibody, human IgG1, kappa, V domains shown)
VH: EVKLEESGGGLVQPGGSMKLSCVASGFIFSNHWMNWVRQSPEKGLEWVAEIRSKSINSATHYAESVKGRFTISRDDSKSAVYLQMTDLRTEDTGVYYCSRNYYGSTYDYWGQGTTLTVSS
VL: DILLTQSPAILSVSPGERVSFSCRASQFVGSSIHWYQQRTNGSPRLLIKYASESMSGIPSRFSGSGSGTDFTLSINTVESEDIADYYCQESHSWPFTFGSGTNLEVKR
notes: Parent anti-TNF antibody; also called AB214VH
B5: AB217 (antibody, human IgG1, kappa, V domains shown)
VH: QVQLVESGGGVVQPGRSLRLSCAASGFTFSSYDMHWVRQAPGKGLEWVAVIWSDGSIKYYADSVKGRFTISRDNSKNTLYLQMNSLRAEDTAVYYCAREVESAMGGFYYNGMDVWGQGTTVTVSS
VL: DIQMTQSPSSLSASVGDRVTITCRASQGIRIDLGWYQQKPGKAPKRLIYAASTLQSGVPSRFSGSGSGTEFIFTISSLQPEDFASYYCLQHKSYPLTFGGGTKVEIKR
notes: Parent anti-TNF antibody; also called AB217VH
B6: AB022 (antibody, V domains shown)
VH: EVQLQQSGPELVTPGASVKISCKASGYTFTDHYMSWVKQSHGKSLEWIGDINPYSGETTYNQKFKGTATLTVDKSSSIAYMEIRGLTSEDSAVYYCARDDYDASPFAYWGQGTLVTVSA
VL: DVQMIQSPSSLSASLGDIVTMTCQASQGTSINLNWFQQKPGKAPKLLIYGSSNLEDGVPSRFSGSRYGTDFTLTISSLEDEDLATYFCLQHSYLPYTFGGGTKLEIKR
notes: Parent anti-SOST antibody; also called SOST; AB022VH
B7: DVD1248 (bispecific antibody, human IgG1, kappa)
heavy: not shown
light: DIQMTQSPSSLSASVGDRVTITCRASQGIRIDLGWYQQKPGKAPKRLIYAASTLQSGVPSRFSGSGSGTEFIFTISSLQPEDFASYYCLQHKSYPLTFGGGTKVEIKRTVAAPDVQMIQSPSSLSASLGDIVTMTCQASQGTSINLNWFQQKPGKAPKLLIYGSSNLEDGVPSRFSGSRYGTDFTLTISSLEDEDLATYFCLQHSYLPYTFGGGTKLEIKRTVAAPSVFIFPPSDEQLKSGTASVVCLLNNFYPREAKVQWKVDNALQSGNSQESVTEQDSKDSTYSLSSTLTLSKADYEKHKVYACEVTHQGLSSPVTKSFNRGEC
notes: constant regions from vectors V1/V2; also called DVD1248H; DVD1248L
B8: AB213 (antibody, human IgG1, kappa, V domains shown)
VH: QVQLKESGPGLVAPSQSLSITCTVSGFSLTDYGVNWVRQPPGKGLEWLGMIWGDGSTDYDSTLKSRLSISKDNSKSQIFLKMNSLQTDDTARYYCAREWHHGPVAYWGQGTLVTVSA
VL: DIVMTQSHKFMSTTVGDRVSITCKASQAVSSAVAWYQQKPGQSPKLLIYWASTRHTGVPDRFTGSGSVTDFTLTIHNLQAEDLALYYCQQHYSTPFTFGSGTKLEIKR
notes: Parent anti-TNF antibody; also called AB213VH
B9: DVD1256 (bispecific antibody, human IgG1, kappa)
heavy: not shown
light: EIVMTQSPATLSVSPGERATLSCRASQSVSSNLAWYQQKPGQAPRLLIHGASIRATGLPARFSGSGSGTEFTLTISSLQSEDFAVYYCQQYNYWWTFGQGTKVEIKRTVAAPDVQMIQSPSSLSASLGDIVTMTCQASQGTSINLNWFQQKPGKAPKLLIYGSSNLEDGVPSRFSGSRYGTDFTLTISSLEDEDLATYFCLQHSYLPYTFGGGTKLEIKRTVAAPSVFIFPPSDEQLKSGTASVVCLLNNFYPREAKVQWKVDNALQSGNSQESVTEQDSKDSTYSLSSTLTLSKADYEKHKVYACEVTHQGLSSPVTKSFNRGEC
notes: constant regions from vectors V1/V2; also called DVD1256H; DVD1256L
B10: AB218 (antibody, human IgG1, kappa, V domains shown)
VH: EVQLVESGGGLIQPGGSLRLSCAASGFTVSRNYMSWVRQAPGKGLEWVSVIYSGDRTYYADSVKGRFTISRDNSKNTLYLQMNSLRAEDTAVYYCARGEGGFDYWGQGTLVTVSS
VL: EIVMTQSPATLSVSPGERATLSCRASQSVSSNLAWYQQKPGQAPRLLIHGASIRATGLPARFSGSGSGTEFTLTISSLQSEDFAVYYCQQYNYWWTFGQGTKVEIKR
notes: Parent anti-TNF antibody; also called AB218VH
B11: DVD1229 (bispecific antibody, human IgG1, kappa)
heavy: not shown
light: DVQMIQSPSSLSASLGDIVTMTCQASQGTSINLNWFQQKPGKAPKLLIYGSSNLEDGVPSRFSGSRYGTDFTLTISSLEDEDLATYFCLQHSYLPYTFGGGTKLEIKRTVAAPDILLTQSPAILSVSPGERVSFSCRASQFVGSSIHWYQQRTNGSPRLLIKYASESMSGIPSRFSGSGSGTDFTLSINTVESEDIADYYCQESHSWPFTFGSGTNLEVKRTVAAPSVFIFPPSDEQLKSGTASVVCLLNNFYPREAKVQWKVDNALQSGNSQESVTEQDSKDSTYSLSSTLTLSKADYEKHKVYACEVTHQGLSSPVTKSFNRGEC
notes: constant regions from vectors V1/V2; also called DVD1229H; DVD1229L

How the values were obtained:
[1] = target: T2, Recombinant Human TNF-α/TNFSF1A (human, UniProt P01375 77-233); assay: Biacore SPR
T2 construct: Bought reagent for Biacore; also called huTNFα
Procedure: (§1) The BIACORE assay (Biacore, Inc, Piscataway, N.J.) determines the affinity of antibodies or DVD-Ig with kinetic measurements of on-rate and off-rate constants. Binding of antibodies or DVD-Ig to a target antigen (for example, a purified recombinant target antigen) is determined by surface plasmon resonance-based measurements with a Biacore® 1000 or 3000 instrument (Biacore® AB, Uppsala, Sweden) using running HBS-EP (10 mM HEPES [pH 7.4], 150 mM NaCl, 3 mM EDTA, and 0.005% surfactant P20) at 25° C. All chemicals are obtained from Biacore® AB (Uppsala, Sweden) or otherwise from a different source as described in the text. For example, approximately 5000 RU of goat anti-mouse IgG, (Fcγ), fragment specific polyclonal antibody (Pierce Biotechnology Inc, Rockford, Ill.) diluted in 10 mM sodium acetate (pH 4.5) is directly immobilized across a CM5 research grade biosensor chip using a standard amine coupling kit according to manufacturer's instructions and procedures at 25 μg/ml. Unreacted moieties on the biosensor surface are blocked with ethanolamine. Modified carboxymethyl dextran surface in flowcell 2 and 4 is used as a reaction surface. Unmodified carboxymethyl dextran without goat anti-mouse IgG in flow cell 1 and 3 is used as the reference surface. For kinetic analysis, rate equations derived from the 1:1 Langmuir binding model are fitted simultaneously to association and dissociation phases of all eight injections (using global fit analysis) with the use of Biaevaluation 4.0.1 software. Purified antibodies or DVD-Ig are diluted in HEPES-buffered saline for capture across goat anti-mouse IgG specific reaction surfaces. Antibodies or DVD-Ig to be captured as a ligand (25 μg/ml) are injected over reaction matrices at a flow rate of 5 μl/min. The association and dissociation rate constants, kₘ (M⁻¹s⁻¹) and koff (s⁻¹) are determined under a continuous flow rate of 25 μl/min. Rate constants are derived by making kinetic binding measurements at different antigen concentrations ranging from 10-200 nM. The equilibrium dissociation constant (M) of the reaction between antibodies or DVD-Igs and the target antigen is then calculated from the kinetic rate constants by the following formula: KD=koff/kₒₙ. Binding is recorded as a function of time and kinetic rate constants are calculated.

[2] = target: T2, Recombinant Human TNF-α/TNFSF1A; assay: cell-based or functional assay
Recombinant Human SOST = target: T1, Recombinant Human SOST; assay: Biacore SPR
Procedure: as §1

T2 sequence (P01375 77-233 limits assumed): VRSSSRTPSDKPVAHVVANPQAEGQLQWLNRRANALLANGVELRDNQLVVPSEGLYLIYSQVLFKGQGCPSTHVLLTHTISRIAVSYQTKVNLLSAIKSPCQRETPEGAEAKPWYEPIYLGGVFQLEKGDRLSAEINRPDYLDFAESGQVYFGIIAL

| Binder | Kd [1] | koff [1] | kon [1] | TNFα Neutralization Assay EC50 nM (L929 cells) [2] | Kd (Recombinant Human SOST) | koff (Recombinant Human SOST) | kon (Recombinant Human SOST) | C-terminal VD TNFα Neutralization Assay EC50 nM (L929 cells) [2] | N-terminal VD TNFα Neutralization Assay EC50 nM (L929 cells) [2] |
| --- | --- | --- | --- | --- | --- | --- | --- | --- | --- |
| B1 | 0.157 nM | 0.000272 s⁻¹ | 1.74e+06 M⁻¹ s⁻¹ | 1.21 nM | – | – | – | – | – |
| B2 | 0.381 nM | 4.64e-05 s⁻¹ | 122000 M⁻¹ s⁻¹ | – | 0.03 nM | 0.000211 s⁻¹ | 7.05e+06 M⁻¹ s⁻¹ | 1.23 nM | – |
| B3 | 0.132 nM | 0.000223 s⁻¹ | 1.69e+06 M⁻¹ s⁻¹ | – | 4.74 nM | 0.00029 s⁻¹ | 61100 M⁻¹ s⁻¹ | – | 1.05 nM |
| B4 | 0.107 nM | 0.000291 s⁻¹ | 2.73e+06 M⁻¹ s⁻¹ | 0.04 nM | – | – | – | – | – |
| B5 | 0.0272 nM | 5.04e-05 s⁻¹ | 1.85e+06 M⁻¹ s⁻¹ | 0.212 nM | – | – | – | – | – |
| B6 | – | – | – | – | 0.0408 nM | 0.000396 s⁻¹ | 9.68e+06 M⁻¹ s⁻¹ | – | – |
| B7 | 0.021 nM | 5.94e-05 s⁻¹ | 2.83e+06 M⁻¹ s⁻¹ | – | 0.0546 nM | 0.00039 s⁻¹ | 7.14e+06 M⁻¹ s⁻¹ | – | 0.006 nM |
| B8 | 0.0335 nM | 0.000108 s⁻¹ | 3.23e+06 M⁻¹ s⁻¹ | 0.189 nM | – | – | – | – | – |
| B9 | 0.0347 nM | 8.55e-05 s⁻¹ | 2.46e+06 M⁻¹ s⁻¹ | – | 1.59 nM | 0.000365 s⁻¹ | 230000 M⁻¹ s⁻¹ | – | – |
| B10 | 0.0288 nM | 5.15e-05 s⁻¹ | 1.79e+06 M⁻¹ s⁻¹ | 0.0345 nM | – | – | – | – | – |
| B11 | 3.6 nM | 0.000398 s⁻¹ | 110000 M⁻¹ s⁻¹ | – | 0.0226 nM | 0.00019 s⁻¹ | 8.43e+06 M⁻¹ s⁻¹ | – | – |
